According to US20170152299A1 (GUANGZHOU SHENGLU BIOTECH, published 2017):
Substitutions are numbered along the chain they refer to. Names and notes keep the numbering of the source.

B1: truncated protein of the wild-type FGFR2b extracellular fragment (SEQ ID NO: 8) (receptor)
chain: KRAPYWTNTEKMEKRLHAVPAANTVKFRCPAGGNPMPTMRWLKNGKEFKQEHRIGGYKVRNQHWSLIMESVVPSDKGNYTCVVENEYGSINHTYHLDVVERSPHRPILQAGLPANASTVVGGDVEFVCKVYSDAQPHIQWIKHVEKNGSKYGPDGLPYLKVLKHSGINSSNAEVLALFNVTEADAGEYICKVSNYIGQANQSAWLTVLPKQQAPGR
notes: also called truncated FGFR2b extracellular fragment, wild type
B2: truncated protein of S252W mutant-type FGFR2b extracellular fragment (SEQ ID NO: 10) (receptor)
chain: B1 chain with S102W
notes: also called truncated FGFR2b extracellular fragment, S252W mutant type
B3: truncated protein of P253R mutant-type FGFR2b extracellular fragment (SEQ ID NO: 12) (receptor)
chain: B1 chain with P103R
notes: also called truncated FGFR2b extracellular fragment, P253R mutant type

Each binder was assayed against T1, FGF7 (UniProt P21781 32-194) (assay: isothermal titration calorimetry; FGF7 titrated into the truncated FGFR2b extracellular fragment in the sample cell (Example 8)).
T1 construct: Bought reagent; also called KGF
T1 sequence (looked up): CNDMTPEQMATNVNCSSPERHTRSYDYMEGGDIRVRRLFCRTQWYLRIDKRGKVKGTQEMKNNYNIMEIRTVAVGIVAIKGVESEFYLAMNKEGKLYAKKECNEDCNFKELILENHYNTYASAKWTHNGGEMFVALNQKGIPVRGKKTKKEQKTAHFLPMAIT
Experimental: The three types of the FGFR2b extracellular fragments and FGF7 (purchased from Millipore) were dialysed respectively with iTC buffer (0.15 mol/L NaCl and 5% glycerol in 20 mmol/L Na₂HPO₄-citrate buffer, pH 7.2). The proteins after the dialysis was centrifuged at 4° C. and 18000 rpm for 30 min before the iTC experiment.
400 ul 35 μmol/L of each of the three types of the FGFR2b extracellular fragments was added to the sample pool, respectively, and titrated with 200 μl 93 μmol/LFGF7 at 2 μl per time at a 2.5 min interval for a total of 20 drops.

| Binder | Ka [M⁻¹] |
| --- | --- |
| B1 | 8.74e+06 |
| B2 | 1.26e+08 |
| B3 | 3.94e+07 |
